Test results taken from US7402303 (LABORATOIRES SERONO, dated 2008).
Changes are numbered by the printed parent chain. In names and notes the source's numbering stands.

T1: recombinant CCR1 (UniProt P32246 1-355, limits assumed)
T1 construct: whole, on cells; The assay used membranes of CHO transfectants, not whole cells
T1 sequence (looked up): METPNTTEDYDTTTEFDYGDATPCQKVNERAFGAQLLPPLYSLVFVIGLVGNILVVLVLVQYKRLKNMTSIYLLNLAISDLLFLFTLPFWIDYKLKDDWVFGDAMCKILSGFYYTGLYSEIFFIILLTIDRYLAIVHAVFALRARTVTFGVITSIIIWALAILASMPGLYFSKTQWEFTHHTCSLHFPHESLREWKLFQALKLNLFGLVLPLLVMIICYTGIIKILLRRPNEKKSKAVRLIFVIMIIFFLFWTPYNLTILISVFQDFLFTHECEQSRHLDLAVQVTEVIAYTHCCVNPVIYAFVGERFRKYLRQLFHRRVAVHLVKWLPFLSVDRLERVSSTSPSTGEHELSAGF

B1: triple 40's RANTES mutant (R44A-K45A-R47A) (ligand)
chain: SPYSSDTTPCCFAYIARPLPRAHIKEYFYTSGKCSNPAVVFVTAANAQVCANPEKKWVREYINSLEMS
notes: E. coli protein, leader cleaved; also called R44A-K45A-R47A RANTES; triple 40's mutant
B2: triple 50's RANTES mutant (K55A-K56A-R59A) (ligand)
chain: B1 chain with A44R, A45K, A47R, K55A, K56A, R59A
notes: E. coli protein, leader cleaved; also called triple 50's mutant; 50's mutant

Target: T1, recombinant CCR1
Assay: SPA equilibrium competition with [125I]-MIP-1α on CHO-CCR1 membranes
Protocol: Competitors were prepared by serial dilutions of the unlabelled chemokines in binding buffer to cover the range 10^-6-10^-12 M. The binding buffer used was 50 mM HEPES, pH 7.2 containing 1 mM CaCl_2, 5 mM MgCl_2, 0.15 M NaCl and 0.5% BSA. Wheatgerm SPA beads (Amersham) were solubilised in PBS to 50 mg/ml, and diluted in the binding buffer to a 10 mg/ml, and the final concentration in the assay was 0.25 mg/well. Membranes prepared from CHO cells expressing CCR1 or CCR5 were stored at −80° C. and diluted in the binding buffer to a 80 μg/ml. Equal volumes of membrane and beads stocks were mixed before performing the assay to reduce background. […] The plates were incubated at room temperature with agitation for 4 hours. Radioactivity was measured and data analysed as described for the heparin-binding assay.
MIP-1α for binding to recombinant CCR1 and CCR5 in membranes prepared from CHO stable transfectants. There was no significant difference in any of the single mutations on both receptors (results not shown).

Row | Binder | fold reduction in affinity against WT RANTES | fold loss of affinity against WT RANTES
1 | B1 | 100 fold | –
2 | B2 | – | 3 fold
